For series [1], the target named is T1, rTcGAPDH (glyceraldehyde 3-phosphate dehydrogenase) (Trypanosoma cruzi, UniProt P22513 1-359). The series can be described thus: EMSA; supershift with anti-GAPDH serum; 1x from 5x buffer: 20 mM HEPES pH 6.0, 1 mM EDTA, 10 mM (NH4)2SO4, 1 mM DTT, 0.2% Tween 20, 30 mM KCl; 0.1 ug poly-lysine, 1 ug poly[d(I-C)], 20 ul, on ice 15 min; 6% native gel, 0.25x TBE. Conditions: protein: recombinant; tags: His-tag; chain copies: 4; label: DIG-11-ddUTP at 3' end (terminal transferase); single strand. Background: A gel shift assay detects complexes by their altered migration in electrophoresis.

Series [2] deals with T1, rTcGAPDH (glyceraldehyde 3-phosphate …). The series can be described thus: EMSA; 50 uM GAPDH; 1x from 5x buffer: 20 mM HEPES pH 6.0, 1 mM EDTA, 10 mM (NH4)2SO4, 1 mM DTT, 0.2% Tween 20, 30 mM KCl; 0.1 ug poly-lysine, 1 ug poly[d(I-C)], 20 ul, on ice 15 min; 6% native gel, 0.25x TBE. The settings on record: protein: recombinant; tags: His-tag; chain copies: 4; label: DIG-11-ddUTP at 3' end; single strand.

T1 sequence (P22513 whole entry): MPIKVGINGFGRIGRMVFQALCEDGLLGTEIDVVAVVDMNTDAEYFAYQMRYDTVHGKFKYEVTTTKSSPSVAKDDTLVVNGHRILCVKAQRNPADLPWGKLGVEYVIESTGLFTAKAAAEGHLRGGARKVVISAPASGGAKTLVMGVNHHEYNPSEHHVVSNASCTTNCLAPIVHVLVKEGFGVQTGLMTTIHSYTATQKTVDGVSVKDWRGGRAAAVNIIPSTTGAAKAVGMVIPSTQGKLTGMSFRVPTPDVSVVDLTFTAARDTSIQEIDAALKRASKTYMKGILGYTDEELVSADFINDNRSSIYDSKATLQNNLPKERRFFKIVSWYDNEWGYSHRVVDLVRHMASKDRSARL

Consider TTAGGGTTAGGGTTAGGGTTAGGGTTAGGGTTAGGG (ssDNA) [ss (TTAGGG)6], for which the binding result in series [1] is on record as “binds”.

On to TTAGGGTTAGGGTTAGGG (ssDNA) [ss (TTAGGG)3], for which the binding result in series [2] was “binds”.

On to TTAGGG (ssDNA) [ss (TTAGGG)1], for which the binding result in series [2] is reported as “binds”.

These data come from PMC4361584, “Glyceraldehyde 3-Phosphate Dehydrogenase-Telomere Association Correlates with Redox Status in Trypanosoma cruzi”.
